According to patent publication US20120213761:

Target: T1, tumor necrosis factor receptor-associated factor 2 (TRAF2), endogenous, in human cardiac tissue, Q12933
T1 chain: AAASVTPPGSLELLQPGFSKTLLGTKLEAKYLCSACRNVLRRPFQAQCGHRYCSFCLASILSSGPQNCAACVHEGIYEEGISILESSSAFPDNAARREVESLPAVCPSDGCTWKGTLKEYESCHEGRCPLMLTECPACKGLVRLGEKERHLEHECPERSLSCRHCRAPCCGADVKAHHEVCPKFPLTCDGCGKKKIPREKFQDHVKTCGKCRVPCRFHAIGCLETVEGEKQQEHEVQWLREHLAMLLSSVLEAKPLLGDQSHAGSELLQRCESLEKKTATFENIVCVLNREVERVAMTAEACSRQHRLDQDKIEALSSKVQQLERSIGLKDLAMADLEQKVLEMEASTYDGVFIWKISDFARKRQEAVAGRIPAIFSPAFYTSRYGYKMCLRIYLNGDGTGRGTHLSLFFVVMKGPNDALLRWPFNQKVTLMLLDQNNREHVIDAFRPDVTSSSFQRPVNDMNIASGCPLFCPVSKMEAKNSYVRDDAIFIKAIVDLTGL

B1: recombinant GSTP1 (Assay Design, Ann Arbor, Mich.) (protein)
chain: PPYTVVYFPVRGRCAALRMLLADQGQSWKEEVVTVETWQEGSLKASCLYGQLPKFQDGDLTLYQSNTILRHLGRTLGLYGKDQQEAALVDMVNDGVEDLRCKYISLIYTNYEAGKDDYVKALPGQLKPFETLLSQNQGGKTFIVGDQISFADYNLLDLLLIHEVLAPGCLDAFPLLSAYVGRLSARPKLKAFLASPEYVNLPINGNGKQ
JNK1 and p38 activation (active JNK / active p38 protein, Western blot) in cardiac tissue cultures: acts as a negative regulator of JNK1 and p38 activation | TNF-α-induced JNK and p38 activation in DCM cardiac tissue cultures (Western blot): higher GSTP1 concentrations inhibit TNF-α-induced JNK and p38 activation in DCM
